Holding throughout (experiment): cell-based or functional assay
Assay [1] concerns the target SAPK2a (h) (human) (UniProt Q16539).
Assay [2] has as its target MST3 (h) (human) (UniProt Q9Y6E0).
The target of assay [3] is MARK1 (h) (human) (UniProt Q9P0L2).
Assay [4] has as its target FGFR1 (h) (human) (UniProt P11362).
Assay [5] addresses CDK3/cyclinE (h) (human) (UniProt Q00526).
In assay [6] the target is Arg (h) (human) (UniProt P42684).
For assay [7], the target named is PKG1α (h) (human) (UniProt Q13976).
The target of assay [8] is Rsk3 (h) (human) (UniProt Q15349).
Chain of Rsk3 (h) (human) (Q15349 whole entry): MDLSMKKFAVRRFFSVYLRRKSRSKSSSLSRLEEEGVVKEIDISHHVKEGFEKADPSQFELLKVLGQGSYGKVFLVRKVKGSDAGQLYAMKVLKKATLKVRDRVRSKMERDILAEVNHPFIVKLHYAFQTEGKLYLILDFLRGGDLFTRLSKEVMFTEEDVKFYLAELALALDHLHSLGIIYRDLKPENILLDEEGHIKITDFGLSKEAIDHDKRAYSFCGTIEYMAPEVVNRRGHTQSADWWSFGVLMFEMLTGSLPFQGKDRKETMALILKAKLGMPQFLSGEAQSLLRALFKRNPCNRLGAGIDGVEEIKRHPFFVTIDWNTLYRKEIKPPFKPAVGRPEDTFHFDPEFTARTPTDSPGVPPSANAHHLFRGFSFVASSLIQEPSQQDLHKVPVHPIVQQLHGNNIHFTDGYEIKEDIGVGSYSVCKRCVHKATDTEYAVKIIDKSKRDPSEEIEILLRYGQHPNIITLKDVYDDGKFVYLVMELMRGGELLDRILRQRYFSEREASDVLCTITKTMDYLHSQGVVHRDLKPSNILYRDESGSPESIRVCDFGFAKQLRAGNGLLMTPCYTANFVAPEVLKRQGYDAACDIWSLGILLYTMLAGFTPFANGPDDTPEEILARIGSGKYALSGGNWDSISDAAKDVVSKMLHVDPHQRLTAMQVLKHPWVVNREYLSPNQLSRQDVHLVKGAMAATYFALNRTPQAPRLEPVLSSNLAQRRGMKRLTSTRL
The target in assay [9] is MLCK (h) (human).
For assay [10], the target named is T1, ARK5 (h) (human) (UniProt O60285).
T1 sequence (looked up): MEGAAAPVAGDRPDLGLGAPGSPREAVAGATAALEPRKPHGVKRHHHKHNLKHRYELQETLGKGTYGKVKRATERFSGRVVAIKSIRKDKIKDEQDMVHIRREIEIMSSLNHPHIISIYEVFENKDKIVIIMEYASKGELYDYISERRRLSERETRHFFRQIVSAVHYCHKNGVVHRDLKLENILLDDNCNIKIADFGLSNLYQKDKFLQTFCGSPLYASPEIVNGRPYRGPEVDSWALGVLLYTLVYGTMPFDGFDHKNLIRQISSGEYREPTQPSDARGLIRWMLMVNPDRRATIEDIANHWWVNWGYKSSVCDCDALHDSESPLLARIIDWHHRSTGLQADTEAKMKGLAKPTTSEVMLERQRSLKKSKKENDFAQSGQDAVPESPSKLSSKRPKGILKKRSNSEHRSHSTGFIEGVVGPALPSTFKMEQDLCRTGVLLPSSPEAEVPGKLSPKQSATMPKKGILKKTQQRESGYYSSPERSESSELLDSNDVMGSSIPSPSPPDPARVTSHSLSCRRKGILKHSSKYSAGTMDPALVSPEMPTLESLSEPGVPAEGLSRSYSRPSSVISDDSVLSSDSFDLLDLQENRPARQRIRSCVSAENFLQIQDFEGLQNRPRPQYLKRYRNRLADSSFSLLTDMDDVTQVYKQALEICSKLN

The target of assay [11] is EphB3 (h) (human) (UniProt P54753).
Chain of EphB3 (h) (human) (P54753 581-998 limits assumed): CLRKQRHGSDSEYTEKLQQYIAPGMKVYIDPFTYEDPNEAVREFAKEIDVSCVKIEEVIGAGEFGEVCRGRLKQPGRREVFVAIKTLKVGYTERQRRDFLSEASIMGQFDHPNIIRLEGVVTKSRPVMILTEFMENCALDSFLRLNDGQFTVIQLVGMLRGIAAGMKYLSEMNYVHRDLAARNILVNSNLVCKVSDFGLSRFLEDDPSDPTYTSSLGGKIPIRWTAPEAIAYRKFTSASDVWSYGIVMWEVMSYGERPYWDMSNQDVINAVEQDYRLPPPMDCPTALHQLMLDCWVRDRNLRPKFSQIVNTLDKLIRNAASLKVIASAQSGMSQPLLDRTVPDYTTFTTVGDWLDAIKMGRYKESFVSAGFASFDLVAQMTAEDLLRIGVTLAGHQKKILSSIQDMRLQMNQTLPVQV
Assay [12] has as its target Pim-2 (h) (human) (UniProt Q9P1W9).
Assay [13] deals with Rsk1 (h) (human) (UniProt Q15418).
Chain of Rsk1 (h) (human) (Q15418 whole entry): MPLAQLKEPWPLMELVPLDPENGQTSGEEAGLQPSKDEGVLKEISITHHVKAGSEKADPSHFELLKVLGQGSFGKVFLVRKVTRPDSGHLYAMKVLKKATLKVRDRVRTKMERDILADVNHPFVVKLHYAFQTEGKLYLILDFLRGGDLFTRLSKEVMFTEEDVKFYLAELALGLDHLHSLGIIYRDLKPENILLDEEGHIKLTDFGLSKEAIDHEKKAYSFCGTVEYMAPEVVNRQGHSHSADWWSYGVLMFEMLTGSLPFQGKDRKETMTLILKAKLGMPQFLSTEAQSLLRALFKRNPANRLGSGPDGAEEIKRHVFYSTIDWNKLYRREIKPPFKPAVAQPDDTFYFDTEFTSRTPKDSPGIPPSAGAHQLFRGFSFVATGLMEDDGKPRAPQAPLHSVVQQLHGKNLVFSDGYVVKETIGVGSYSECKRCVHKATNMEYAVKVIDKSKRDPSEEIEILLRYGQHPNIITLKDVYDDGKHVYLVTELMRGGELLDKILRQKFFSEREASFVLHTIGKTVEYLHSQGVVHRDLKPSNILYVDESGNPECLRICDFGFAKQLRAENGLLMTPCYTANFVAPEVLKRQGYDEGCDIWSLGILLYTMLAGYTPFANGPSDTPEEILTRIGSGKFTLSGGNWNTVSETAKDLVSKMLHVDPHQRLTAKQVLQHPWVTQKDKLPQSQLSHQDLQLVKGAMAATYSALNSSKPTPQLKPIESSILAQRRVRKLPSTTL
In assay [14] the target is Met(M1268T) (h) (human) (UniProt P08581).
The target in assay [15] is MKK7β (h) (human) (UniProt O14733).
In assay [16] the target is DAPK1 (h) (human) (UniProt P53355).
For assay [17], the target named is EphA2 (h) (human) (UniProt P29317).
Chain of EphA2 (h) (human) (P29317 559-976 limits assumed): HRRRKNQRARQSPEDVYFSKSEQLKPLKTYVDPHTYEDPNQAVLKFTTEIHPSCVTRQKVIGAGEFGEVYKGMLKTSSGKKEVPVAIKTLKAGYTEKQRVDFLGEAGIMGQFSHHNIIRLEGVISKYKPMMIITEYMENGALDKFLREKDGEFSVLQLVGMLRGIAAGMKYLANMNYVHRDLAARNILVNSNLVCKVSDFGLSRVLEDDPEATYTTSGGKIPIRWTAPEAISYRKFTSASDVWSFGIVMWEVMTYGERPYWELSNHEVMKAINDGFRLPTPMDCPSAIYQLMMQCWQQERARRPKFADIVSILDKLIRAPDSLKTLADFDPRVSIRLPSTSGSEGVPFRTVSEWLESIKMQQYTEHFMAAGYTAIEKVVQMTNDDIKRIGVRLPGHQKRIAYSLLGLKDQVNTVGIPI
The target in assay [18] is T2, PrKX (h) (human) (UniProt P51817).
T2 sequence (looked up): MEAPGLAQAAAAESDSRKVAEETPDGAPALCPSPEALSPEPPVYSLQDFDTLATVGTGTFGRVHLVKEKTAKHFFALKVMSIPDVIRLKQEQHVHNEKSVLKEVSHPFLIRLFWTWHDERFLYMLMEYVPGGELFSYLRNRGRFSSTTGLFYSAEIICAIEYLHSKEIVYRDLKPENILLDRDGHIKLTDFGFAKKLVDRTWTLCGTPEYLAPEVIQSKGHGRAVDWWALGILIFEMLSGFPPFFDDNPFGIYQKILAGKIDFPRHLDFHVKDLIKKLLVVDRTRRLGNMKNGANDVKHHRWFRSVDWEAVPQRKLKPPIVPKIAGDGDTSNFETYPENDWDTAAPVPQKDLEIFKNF

Assay [19] addresses CDK7/cyclinH/MAT1 (h) (human) (UniProt P50613).
In assay [20] the target is T3, NEK11 (h) (human) (UniProt Q8NG66).
T3 sequence (looked up): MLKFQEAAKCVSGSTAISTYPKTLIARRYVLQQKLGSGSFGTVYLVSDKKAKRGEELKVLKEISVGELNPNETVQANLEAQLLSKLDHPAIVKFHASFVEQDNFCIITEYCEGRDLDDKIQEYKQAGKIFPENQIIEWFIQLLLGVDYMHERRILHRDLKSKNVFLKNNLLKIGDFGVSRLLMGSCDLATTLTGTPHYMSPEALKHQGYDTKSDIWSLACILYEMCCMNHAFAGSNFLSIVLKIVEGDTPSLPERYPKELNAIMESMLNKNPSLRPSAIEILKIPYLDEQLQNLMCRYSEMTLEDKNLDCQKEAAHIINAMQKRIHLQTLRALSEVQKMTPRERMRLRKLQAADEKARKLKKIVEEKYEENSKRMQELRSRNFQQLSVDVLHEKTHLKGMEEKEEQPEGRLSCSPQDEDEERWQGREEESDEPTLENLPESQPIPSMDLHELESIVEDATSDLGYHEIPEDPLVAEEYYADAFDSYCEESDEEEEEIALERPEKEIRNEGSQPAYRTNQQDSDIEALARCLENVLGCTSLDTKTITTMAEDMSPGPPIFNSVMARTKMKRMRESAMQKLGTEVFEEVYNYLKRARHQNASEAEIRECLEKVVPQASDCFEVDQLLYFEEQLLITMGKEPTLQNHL

Chain of Arg (h) (human) (P42684 38-1182 limits assumed): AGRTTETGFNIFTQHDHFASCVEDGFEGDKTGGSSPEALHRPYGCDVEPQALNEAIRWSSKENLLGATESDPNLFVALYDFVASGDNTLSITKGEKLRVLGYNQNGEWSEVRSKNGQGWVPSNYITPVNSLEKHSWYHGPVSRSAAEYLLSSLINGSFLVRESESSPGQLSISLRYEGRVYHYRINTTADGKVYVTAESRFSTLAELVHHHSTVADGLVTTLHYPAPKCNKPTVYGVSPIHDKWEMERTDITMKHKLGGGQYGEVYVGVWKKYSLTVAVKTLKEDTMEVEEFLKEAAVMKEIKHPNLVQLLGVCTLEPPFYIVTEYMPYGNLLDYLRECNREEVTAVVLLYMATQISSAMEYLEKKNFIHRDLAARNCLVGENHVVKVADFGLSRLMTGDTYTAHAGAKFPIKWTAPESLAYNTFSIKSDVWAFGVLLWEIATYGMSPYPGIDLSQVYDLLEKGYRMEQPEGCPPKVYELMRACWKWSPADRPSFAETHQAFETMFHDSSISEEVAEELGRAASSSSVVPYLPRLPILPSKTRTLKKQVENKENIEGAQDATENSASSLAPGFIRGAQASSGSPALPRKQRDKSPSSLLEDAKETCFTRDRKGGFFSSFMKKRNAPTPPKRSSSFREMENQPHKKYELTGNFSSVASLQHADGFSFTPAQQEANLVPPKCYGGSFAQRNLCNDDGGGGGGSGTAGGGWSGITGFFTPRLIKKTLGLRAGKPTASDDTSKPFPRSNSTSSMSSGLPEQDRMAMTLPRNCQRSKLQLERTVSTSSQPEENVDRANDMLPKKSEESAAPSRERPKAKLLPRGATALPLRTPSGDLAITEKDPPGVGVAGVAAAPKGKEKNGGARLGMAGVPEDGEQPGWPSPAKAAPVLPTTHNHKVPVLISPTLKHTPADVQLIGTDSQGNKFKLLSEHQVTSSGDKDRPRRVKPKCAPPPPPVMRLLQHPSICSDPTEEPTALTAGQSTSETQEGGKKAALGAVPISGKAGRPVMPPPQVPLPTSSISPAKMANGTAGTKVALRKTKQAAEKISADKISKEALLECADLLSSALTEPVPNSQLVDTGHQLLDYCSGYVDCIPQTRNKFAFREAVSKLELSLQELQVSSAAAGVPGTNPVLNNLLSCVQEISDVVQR
Chain of CDK7/cyclinH/MAT1 (h) (human) (P50613 whole entry, chain 1 of 3): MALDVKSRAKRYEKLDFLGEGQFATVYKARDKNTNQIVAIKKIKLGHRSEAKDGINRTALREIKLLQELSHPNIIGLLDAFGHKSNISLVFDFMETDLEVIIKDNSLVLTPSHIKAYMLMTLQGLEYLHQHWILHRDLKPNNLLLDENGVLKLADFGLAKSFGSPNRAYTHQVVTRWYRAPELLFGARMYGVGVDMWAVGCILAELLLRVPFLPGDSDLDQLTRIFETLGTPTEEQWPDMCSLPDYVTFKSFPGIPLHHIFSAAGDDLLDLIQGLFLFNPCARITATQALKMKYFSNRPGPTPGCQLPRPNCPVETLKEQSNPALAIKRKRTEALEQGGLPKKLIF
Chain of CDK7/cyclinH/MAT1 (h) (human) (P51946 whole entry, chain 2 of 3, further chain): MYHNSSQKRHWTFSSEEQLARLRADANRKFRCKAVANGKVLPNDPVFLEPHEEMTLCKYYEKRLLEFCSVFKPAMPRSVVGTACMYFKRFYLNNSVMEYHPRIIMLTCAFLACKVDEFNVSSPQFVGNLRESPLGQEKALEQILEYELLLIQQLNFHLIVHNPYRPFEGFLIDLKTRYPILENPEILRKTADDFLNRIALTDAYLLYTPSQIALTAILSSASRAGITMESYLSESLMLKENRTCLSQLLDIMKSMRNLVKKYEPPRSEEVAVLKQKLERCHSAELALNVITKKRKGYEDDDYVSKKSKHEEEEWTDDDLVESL
Chain of CDK7/cyclinH/MAT1 (h) (human) (P51948 whole entry, chain 3 of 3, further chain): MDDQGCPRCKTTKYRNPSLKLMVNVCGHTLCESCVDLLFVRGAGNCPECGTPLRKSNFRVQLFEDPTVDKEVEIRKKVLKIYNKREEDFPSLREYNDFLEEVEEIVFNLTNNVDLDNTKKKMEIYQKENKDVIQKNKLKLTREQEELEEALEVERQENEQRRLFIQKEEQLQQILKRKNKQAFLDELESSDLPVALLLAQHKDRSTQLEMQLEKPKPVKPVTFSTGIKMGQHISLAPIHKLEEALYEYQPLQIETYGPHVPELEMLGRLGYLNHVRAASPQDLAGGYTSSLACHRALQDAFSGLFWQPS
Chain of SAPK2a (h) (human) (Q16539 whole entry): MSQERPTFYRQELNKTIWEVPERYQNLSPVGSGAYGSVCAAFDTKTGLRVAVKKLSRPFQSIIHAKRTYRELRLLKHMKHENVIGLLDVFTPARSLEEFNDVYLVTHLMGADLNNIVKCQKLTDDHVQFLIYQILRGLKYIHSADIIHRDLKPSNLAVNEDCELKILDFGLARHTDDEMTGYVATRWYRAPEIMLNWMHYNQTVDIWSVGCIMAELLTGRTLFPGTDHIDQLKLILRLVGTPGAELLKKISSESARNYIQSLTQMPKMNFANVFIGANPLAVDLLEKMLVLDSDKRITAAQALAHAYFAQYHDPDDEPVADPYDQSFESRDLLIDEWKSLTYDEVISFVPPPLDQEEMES

Consider MMI-0300 (peptide), for which the % activity at 100 µM in [1] was 90%; in assay [2], 45%; in assay [3], 132%; in assay [4], 55%; in assay [5], 94%; in [6] it was 72%. The % activity at 100 µM in assay [7] stood at 64%; in assay [8], 76%; in [9] it was 2%; in [10], 78%; in assay [11], 62%; in [12], 76%. Also, the % activity at 100 µM in assay [13] came out at 46%; in [14], 255%; in [15], 100%; in assay [16], 46%; in assay [17], 31%; in assay [18], 61%. Further, the values for the % activity at 100 µM in [19] and in assay [20] were 65% and 53%, respectively.

(Values after patent publication US20160136234A1.)
